Paper PMC9542875

Legend:
[1] = target: allophycocyanin αβ dimer (purified APC, Sigma-Aldrich A7472) (UniProt P72504); test: native MS; purified APC, 1 μM hexamer (6 μM bilin); 100 mM ammonium acetate; without metal ions and with Ag+, Cu2+, Fe2+/3+ or Zn2+ (oligomeric equilibrium unchanged on a short timescale; prolonged exposure to Cu2+ gives dissociation towards the dimer)
[2] = target: phycocyanin αβ dimer (Arthrospira maxima CCAP 1475/9) (Arthrospira maxima (CCAP 1475/9)); test: native MS; purified PC without metal ions, 1 μM hexamer (Fig. 1D); 100 mM ammonium acetate pH 6.8; nano-electrospray, Orbitrap; hexamer to αβ dimers
[3] = target: phycocyanin αβ dimer (Arthrospira maxima CCAP 1475/9) (Arthrospira maxima (CCAP 1475/9)); test: native MS; purified PC (24 μM bilin) with Ag+ at 0.25 and 0.5 bilin equivalents; 100 mM ammonium acetate

allophycocyanin αβ dimer (purified APC, Sigma-Aldrich A7472) (from UniProt P72504 1-161; P72505 1-161) (complex)
stoichiometry N [1]: 3

phycocyanin αβ dimer (Arthrospira maxima CCAP 1475/9) (from UniProt P72509 1-162; P72508 1-172) (complex)
stoichiometry N [2]: 3 | stoichiometry N [3]: 2
